Assay results reported in IntAct's records for PubMed 35512704.

B1: Speckle-type POZ protein (Homo sapiens), O43791 (parent)
chain: MSRVPSPPPPAEMSSGPVAESWCYTQIKVVKFSYMWTINNFSFCREEMGEVIKSSTFSSGANDKLKWCLRVNPKGLDEESKDYLSLYLLLVSCPKSEVRAKFKFSILNAKGEETKAMESQRAYRFVQGKDWGFKKFIRRDFLLDEANGLLPDDKLTLFCEVSVVQDSVNISGQNTMNMVKVPECRLADELGGLWENSRFTDCCLCVAGQEFQAHKAILAARSPVFSAMFEHEMEESKKNRVEINDVEPEVFKEMMCFIYTGKAPNLDKMADDLLAAADKYALERLKVMCEDALCSNLSVENAAEILILADLHSADQLKTQAVDFINYHASDVLETSGWKSMVVSHPHLVAEAYRSLASAQCPFLGPPRKRLKQS
partner: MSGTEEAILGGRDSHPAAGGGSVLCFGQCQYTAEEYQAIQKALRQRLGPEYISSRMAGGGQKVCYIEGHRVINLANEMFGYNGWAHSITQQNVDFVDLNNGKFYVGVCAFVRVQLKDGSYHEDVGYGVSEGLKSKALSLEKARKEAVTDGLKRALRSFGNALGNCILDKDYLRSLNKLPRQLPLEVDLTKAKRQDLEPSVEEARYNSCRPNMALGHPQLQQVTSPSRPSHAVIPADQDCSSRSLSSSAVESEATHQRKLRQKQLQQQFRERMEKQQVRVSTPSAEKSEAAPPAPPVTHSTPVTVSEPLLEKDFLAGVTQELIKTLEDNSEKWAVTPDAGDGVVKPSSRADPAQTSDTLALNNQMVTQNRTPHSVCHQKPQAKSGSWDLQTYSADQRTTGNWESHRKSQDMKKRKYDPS
B2: Speckle-type POZ protein (Homo sapiens), O43791 (parent)
chain: B1 chain
partner: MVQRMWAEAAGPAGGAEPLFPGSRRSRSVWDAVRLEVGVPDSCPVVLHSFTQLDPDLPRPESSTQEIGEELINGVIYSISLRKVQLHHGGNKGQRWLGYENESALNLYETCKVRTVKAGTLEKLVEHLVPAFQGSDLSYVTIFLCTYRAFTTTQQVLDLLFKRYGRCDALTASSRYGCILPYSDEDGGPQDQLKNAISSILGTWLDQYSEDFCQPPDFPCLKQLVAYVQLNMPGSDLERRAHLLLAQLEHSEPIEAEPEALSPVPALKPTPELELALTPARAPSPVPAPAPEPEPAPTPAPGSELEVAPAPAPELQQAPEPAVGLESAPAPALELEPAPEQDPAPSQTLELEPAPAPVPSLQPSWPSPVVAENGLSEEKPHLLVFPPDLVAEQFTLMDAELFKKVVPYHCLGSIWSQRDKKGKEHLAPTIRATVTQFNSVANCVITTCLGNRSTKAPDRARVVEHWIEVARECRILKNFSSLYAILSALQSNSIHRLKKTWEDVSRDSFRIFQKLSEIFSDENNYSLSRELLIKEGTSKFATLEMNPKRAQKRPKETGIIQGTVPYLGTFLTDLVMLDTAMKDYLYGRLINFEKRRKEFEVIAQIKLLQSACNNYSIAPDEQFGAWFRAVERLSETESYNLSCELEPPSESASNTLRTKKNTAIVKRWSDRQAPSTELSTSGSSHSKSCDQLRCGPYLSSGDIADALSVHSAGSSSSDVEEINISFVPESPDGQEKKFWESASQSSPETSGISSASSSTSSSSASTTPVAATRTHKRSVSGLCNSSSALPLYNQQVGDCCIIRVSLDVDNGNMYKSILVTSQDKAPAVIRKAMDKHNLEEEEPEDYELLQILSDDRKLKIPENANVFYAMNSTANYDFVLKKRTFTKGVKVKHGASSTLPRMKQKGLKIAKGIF
B3: Speckle-type POZ protein (Homo sapiens), O43791 (parent)
chain: B1 chain
partner: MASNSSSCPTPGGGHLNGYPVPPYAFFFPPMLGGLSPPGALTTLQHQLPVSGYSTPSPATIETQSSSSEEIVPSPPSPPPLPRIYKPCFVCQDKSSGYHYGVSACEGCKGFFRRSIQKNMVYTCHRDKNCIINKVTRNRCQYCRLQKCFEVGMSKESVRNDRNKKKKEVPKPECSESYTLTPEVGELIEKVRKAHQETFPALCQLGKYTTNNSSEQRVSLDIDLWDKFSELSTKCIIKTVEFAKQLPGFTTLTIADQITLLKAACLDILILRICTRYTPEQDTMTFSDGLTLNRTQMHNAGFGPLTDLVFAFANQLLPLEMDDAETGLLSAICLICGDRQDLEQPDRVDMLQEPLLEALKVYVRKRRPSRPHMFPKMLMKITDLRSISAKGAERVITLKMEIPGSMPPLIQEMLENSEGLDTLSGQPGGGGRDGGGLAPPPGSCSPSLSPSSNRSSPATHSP
B4: Speckle-type POZ protein (Homo sapiens), O43791 (parent)
chain: B1 chain
partner: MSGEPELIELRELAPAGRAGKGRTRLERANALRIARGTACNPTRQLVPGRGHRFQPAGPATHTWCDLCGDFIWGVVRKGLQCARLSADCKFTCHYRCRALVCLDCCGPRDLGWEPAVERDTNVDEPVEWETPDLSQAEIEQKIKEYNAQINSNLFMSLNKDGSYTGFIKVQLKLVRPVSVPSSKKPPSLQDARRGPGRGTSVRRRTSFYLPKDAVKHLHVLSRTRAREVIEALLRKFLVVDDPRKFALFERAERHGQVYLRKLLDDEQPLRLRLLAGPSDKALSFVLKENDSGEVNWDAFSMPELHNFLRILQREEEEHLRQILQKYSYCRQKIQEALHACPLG
B5: Speckle-type POZ protein (Homo sapiens), O43791 (parent)
chain: B1 chain
partner: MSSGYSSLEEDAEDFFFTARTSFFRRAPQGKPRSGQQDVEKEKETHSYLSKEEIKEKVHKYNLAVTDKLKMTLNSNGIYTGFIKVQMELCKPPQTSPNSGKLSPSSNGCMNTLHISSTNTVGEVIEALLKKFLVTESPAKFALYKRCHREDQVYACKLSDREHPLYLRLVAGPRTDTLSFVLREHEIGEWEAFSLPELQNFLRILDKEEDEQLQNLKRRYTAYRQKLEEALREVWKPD
B6: Speckle-type POZ protein (Homo sapiens), O43791 (parent)
chain: B1 chain
partner: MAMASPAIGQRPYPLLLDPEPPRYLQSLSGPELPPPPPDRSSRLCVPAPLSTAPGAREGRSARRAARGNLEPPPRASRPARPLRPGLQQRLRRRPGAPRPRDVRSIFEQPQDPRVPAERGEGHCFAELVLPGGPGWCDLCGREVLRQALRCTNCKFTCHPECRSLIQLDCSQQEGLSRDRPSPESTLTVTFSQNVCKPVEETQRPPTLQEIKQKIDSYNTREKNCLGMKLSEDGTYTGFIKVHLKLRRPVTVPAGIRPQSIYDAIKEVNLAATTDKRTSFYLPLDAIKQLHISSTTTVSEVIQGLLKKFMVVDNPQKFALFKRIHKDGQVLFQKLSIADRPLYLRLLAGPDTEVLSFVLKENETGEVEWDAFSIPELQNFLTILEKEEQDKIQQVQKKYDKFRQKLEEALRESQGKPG

Variants of: B1
Details: with rad52_human RAD52, P43351

Variant | effect of a mutation on the interaction
F102C | with no effect

Variants of: B1
Details: with rad52_human RAD52, P43351
Remark: another data set of the same source

Variant | effect of a mutation on the interaction
F133L | with no effect

Variants of: B1
Details: with rad52_human RAD52, P43351
Remark: another data set of the same source

Variant | effect of a mutation on the interaction
Y87C | with no effect

Variants of: B1
Details: with rad52_human RAD52, P43351
Remark: another data set of the same source

Variant | effect of a mutation on the interaction
F133V | with no effect

Variants of: B2
Details: with gnds_human RALGDS

Variant | effect of a mutation on the interaction
F102C | with no effect

Variants of: B2
Details: with gnds_human RALGDS
Remark: another data set of the same source

Variant | effect of a mutation on the interaction
F133L | with no effect

Variants of: B2
Details: with gnds_human RALGDS
Remark: another data set of the same source

Variant | effect of a mutation on the interaction
Y87C | with no effect

Variants of: B2
Details: with gnds_human RALGDS
Remark: another data set of the same source

Variant | effect of a mutation on the interaction
F133V | with no effect

Variants of: B3
Details: with rara_human RARA

Variant | effect of a mutation on the interaction
F102C | with no effect

Variants of: B3
Details: with rara_human RARA
Remark: another data set of the same source

Variant | effect of a mutation on the interaction
F133L | with no effect

Variants of: B3
Details: with rara_human RARA
Remark: another data set of the same source

Variant | effect of a mutation on the interaction
Y87C | with no effect

Variants of: B3
Details: with rara_human RARA
Remark: another data set of the same source

Variant | effect of a mutation on the interaction
F133V | with no effect

Variants of: B4
Details: with rasf1_human RASSF1, Q9NS23

Variant | effect of a mutation on the interaction
F102C | with no effect

Variants of: B4
Details: with rasf1_human RASSF1, Q9NS23
Remark: another data set of the same source

Variant | effect of a mutation on the interaction
F133L | with no effect

Variants of: B4
Details: with rasf1_human RASSF1, Q9NS23
Remark: another data set of the same source

Variant | effect of a mutation on the interaction
Y87C | with no effect

Variants of: B4
Details: with rasf1_human RASSF1, Q9NS23
Remark: another data set of the same source

Variant | effect of a mutation on the interaction
F133V | with no effect

Variants of: B5
Details: with rasf3_human RASSF3, Q86WH2

Variant | effect of a mutation on the interaction
F102C | with no effect

Variants of: B5
Details: with rasf3_human RASSF3, Q86WH2
Remark: another data set of the same source

Variant | effect of a mutation on the interaction
F133L | with no effect

Variants of: B5
Details: with rasf3_human RASSF3, Q86WH2
Remark: another data set of the same source

Variant | effect of a mutation on the interaction
Y87C | with no effect

Variants of: B5
Details: with rasf3_human RASSF3, Q86WH2
Remark: another data set of the same source

Variant | effect of a mutation on the interaction
F133V | with no effect

Variants of: B6
Details: with rasf5_human RASSF5, Q8WWW0

Variant | effect of a mutation on the interaction
F102C | with no effect

Variants of: B6
Details: with rasf5_human RASSF5, Q8WWW0
Remark: another data set of the same source

Variant | effect of a mutation on the interaction
F133L | with no effect

Variants of: B6
Details: with rasf5_human RASSF5, Q8WWW0
Remark: another data set of the same source

Variant | effect of a mutation on the interaction
Y87C | with no effect

Variants of: B6
Details: with rasf5_human RASSF5, Q8WWW0
Remark: another data set of the same source

Variant | effect of a mutation on the interaction
F133V | with no effect
